Measurements from US20240025993A1, “CD19 BINDING MOLECULES AND USES THEREOF” (NOVARTIS AG, priority 2020, published 2024).
Blank lines part the entries; values can stand above or below the molecule they belong to.

Assays:
[1] = molecular target: human FcγR1A (Homo sapiens, UniProt P12314); assay: SPR binding of Fc modified anti-CD3 IgG1 antibodies (Example 34); conditions: anti-CD3 IgG1 antibody immobilized
Protocol: Surface plasmon resonance (SPR) experiments were performed to analyze the interaction of human activating receptors FcγR1A, FcγR3A (V158) and human C1q with IgG1 WT and antibody-Fc variants. Binding kinetics and their relative binding affinities were explored. The binding affinity is an important characteristic of an interaction between an antibody and an antigen. The equilibrium dissociation constant (KD) defines how strong the interaction is and therefore how much antibody-antigen complex is formed at equilibrium.
The knowledge of the antibody characteristics is not only essential during selection of the best therapeutic antibody candidate, but also important to understand the in vivo behavior and potentially predict cellular immune responses. […] Binding to human C1q was evaluated. […] SPR measurements were measured on a Biacore T200 (GE-Healthcare Life Sciences) controlled by Biacore T200 control software version 2.0.1. […]
The antibodies were covalently immobilized on a CM5 sensor chip whereas Fc gamma receptors or human C1q served as analytes in solution (FIG. 38). […] Zero concentration samples (blank runs) were measured for both methods to allow double-referencing during data evaluation.
Data were evaluated using the Biacore T200 evaluation software. […] In addition, the maximum response reached during the experiment was monitored. […]

[2] = Differential scanning calorimetry, melting temperature of Fc modified anti-CD3 antibodies (Example 35); format: physicochemical; conditions: DSC, 1 mg/ml in PBS pH 7.4, anti-CD3 IgG1 Fc variants
Protocol: Calorimetric measurements were carried out on a differential scanning micro calorimeter (Nano DSC, TA instruments). The cell volume was 0.5 ml and the heating rate was 1° C./min. All proteins were used at a concentration of 1 mg/m in PBS (pH 7.4). The molar heat capacity of each protein was estimated by comparison with duplicate samples containing identical buffer from which the protein had been omitted. The partial molar heat capacities and melting curves were analyzed using standard procedure. Thermograms were baseline corrected and concentration normalized.

[3] = Aggregation propensity (% HMW) by analytical SEC of IgG1 anti-CD3 antibody and Fc variants (Example 35); format: physicochemical; conditions: PBS pH 7.4, anti-CD3 antibodies
Protocol: Size exclusion chromatography measurements were performed to evaluate the aggregation propensity (% HMW) of IgG1 antibody and Fc modified derivatives. The produced and purified anti CD3 antibodies were applied to an analytical size exclusion chromatography column (SEC 200, GE Healthcare), equilibrated with PBS buffer pH 7.4.

[4] = tested on: cyno CD19; assay: Binding of TBMs to 300.19 cells overexpressing cyno CD19 (Example 11); conditions: flow cytometry, R variants
Protocol: (§1) The mouse cell line 300.19 was engineered to overexpress either human CD19 or cyno CD19. Cells were cultured in RPMI medium (Invitrogen #11875-093) with 10% FBS and 2-mercaptoethanol. Cells were harvested and resuspended in FACS buffer (PBS containing 1% FBS). 50,000 cells per well were plated in a V-bottom 96-well plate. Each cell line was incubated with serial dilutions of TBMs of Example 1A (i.e., R variants) for one hour on ice. Cells were centrifuged for 4 min at 400×g and washed with FACS buffer. This was repeated twice, and then the cells were incubated with Alexa-647 labeled anti-human Fc secondary antibody (Jackson Immuno #109-605-098) for 30 min on ice. The cells were washed twice, then resuspended in 100 μL of FACS buffer. FACS data was collected on a Beckman Coulter Cytoflex and analysis was performed using CytExpert v2.3.

[5] = molecular target: T1, human CD19 (Homo sapiens, UniProt P15391); assay: Binding of TBMs to 300.19 cells overexpressing human CD19 (Example 11); conditions: flow cytometry, R variants
T1 construct: expressed in transfected cells; host or cells: mouse cell line 300.19
T1 sequence (P15391 20-556): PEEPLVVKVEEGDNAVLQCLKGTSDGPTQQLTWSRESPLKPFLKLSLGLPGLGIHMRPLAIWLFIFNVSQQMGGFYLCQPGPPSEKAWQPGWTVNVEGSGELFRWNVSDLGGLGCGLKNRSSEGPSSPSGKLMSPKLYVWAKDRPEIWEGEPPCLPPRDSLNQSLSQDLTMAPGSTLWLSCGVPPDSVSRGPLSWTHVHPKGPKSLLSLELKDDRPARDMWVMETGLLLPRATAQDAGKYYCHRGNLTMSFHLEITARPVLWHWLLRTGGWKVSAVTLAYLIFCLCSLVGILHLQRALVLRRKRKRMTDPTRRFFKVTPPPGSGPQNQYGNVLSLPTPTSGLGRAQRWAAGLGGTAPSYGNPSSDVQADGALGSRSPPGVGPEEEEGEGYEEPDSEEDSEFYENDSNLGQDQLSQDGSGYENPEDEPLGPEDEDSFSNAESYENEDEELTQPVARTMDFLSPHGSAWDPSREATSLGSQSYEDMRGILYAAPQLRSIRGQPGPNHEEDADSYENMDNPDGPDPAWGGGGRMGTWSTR
Protocol: as §1

human FcγR1A, sequence (P12314 16-374): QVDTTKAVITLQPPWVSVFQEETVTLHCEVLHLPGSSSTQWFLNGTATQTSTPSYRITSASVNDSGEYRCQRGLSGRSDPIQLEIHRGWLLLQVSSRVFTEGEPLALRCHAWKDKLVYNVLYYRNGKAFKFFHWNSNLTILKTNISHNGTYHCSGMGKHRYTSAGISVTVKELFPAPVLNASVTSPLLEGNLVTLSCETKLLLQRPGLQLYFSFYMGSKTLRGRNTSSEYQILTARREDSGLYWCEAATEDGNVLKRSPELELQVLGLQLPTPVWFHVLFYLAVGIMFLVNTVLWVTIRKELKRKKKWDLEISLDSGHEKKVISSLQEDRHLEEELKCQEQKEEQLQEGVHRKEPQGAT

Maximum response at 100 nM hFcgammaRIA (RU) [1]: 13 RU
B1: DAPASK-IgG1: anti-CD3 IgG1 with D265A/P329A/S267K (antibody)
heavy: EVQLVESGGGLVQPGGSLKLSCAASGFTFNTYAMNWVRQASGKGLEWVGRIRSKYNNYATYYADSVKDRFTISRDDSKSTLYLQMNSLKTEDTAVYYCVRHGNFGNSYVSWFAYWGQGTLVTVSSASTKGPSVFPLAPSSKSTSGGTAALGCLVKDYFPEPVTVSWNSGALTSGVHTFPAVLQSSGLYSLSSVVTVPSSSLGTQTYICNVNHKPSNTKVDKRVEPKSCDKTHTCPPCPAPELLGGPSVFLFPPKPKDTLMISRTPEVTCVVVAVKHEDPEVKFNWYVDGVEVHNAKTKPREEQYNSTYRVVSVLTVLHQDWLNGKEYKCKVSNKALAAPIEKTISKAKGQPREPQVYTLPPSRDELTKNQVSLTCLVKGFYPSDIAVEWESNGQPENNYKTTPPVLDSDGSFFLYSKLTVDKSRWQQGNVFSCSVMHEALHNHYTQKSLSLSPGK
light: QAVVTQEPSLTVSPGGTVTLTCRSSTGAVTTSNYANWVQQKPGQAPRGLIGGTNKRAPWTPARFSGSLLGDKAALTLSGAQPEDEAEYFCALWYSNLWVFGGGTKLTVLGQPKAAPSVTLFPPSSEELQANKATLVCLISDFYPGAVTVAWKADSSPVKAGVETTTPSKQSNNKYAASSYLSLTPEQWKSHRSYSCQVTHEGSTVEKTVAPTECS
Melting temperature (Tm) of CH2 domain [2]: 65 °C
(%) higher molecular weight [3]: 3.6%

B2: NEG258: CD19 antibody/binder; VH SEQ ID NO:13, VL SEQ ID NO:26 (antibody, V domains shown)
VH: QVQLVQSGAEVKKPGASVKVSCKASGYTFTTYWIQWVRQAPGQRLEWMGAVYPGDADTRYTQKFQGRVTLTADRSASTAYMELSSLRSEDTAVYYCGRDAGLEYYALDYWGQGTLVTVSS
VL: EIVMTQSPATLSVSPGERATLSCRASQDVGTAVAWYQQKPGQAPRLLIYWASTRHTGIPARFSGSGSGTEFTLTISSLQSEDFAVYFCQQYANFPLYTFGQGTKLEIK
binding to cells overexpressing cyno CD19 [4]: greater affinity for both human CD19 and cyno CD19
binding to cells overexpressing human CD19 [5]: greater affinity for both human CD19 and cyno CD19
